One experiment deals with T1, B7H3-His重组蛋白 (human, UniProt Q5ZPR3 29-466).
T1 construct: extracellular domain; also called 携带His标签的重组B7H3蛋白; not shown: C-terminal His tag
T1 sequence (looked up): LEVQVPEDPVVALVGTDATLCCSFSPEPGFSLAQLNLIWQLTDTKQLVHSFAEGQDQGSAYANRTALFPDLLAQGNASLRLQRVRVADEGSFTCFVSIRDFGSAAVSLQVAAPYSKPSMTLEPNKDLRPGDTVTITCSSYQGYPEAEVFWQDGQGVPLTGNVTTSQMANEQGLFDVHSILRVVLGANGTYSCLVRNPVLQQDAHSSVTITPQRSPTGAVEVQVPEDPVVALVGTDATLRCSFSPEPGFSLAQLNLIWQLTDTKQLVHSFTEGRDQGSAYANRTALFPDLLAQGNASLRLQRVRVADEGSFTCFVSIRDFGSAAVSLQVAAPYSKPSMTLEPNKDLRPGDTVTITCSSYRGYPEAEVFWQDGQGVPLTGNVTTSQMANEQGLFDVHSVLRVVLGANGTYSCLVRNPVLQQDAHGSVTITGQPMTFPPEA
Nature of the experiment: SPR (Biacore), B7H3-His amine-coupled to CM5 chip, antibody as analyte. A general note: In SPR one partner is held on a chip, and binding of the other changes the refractive index at the surface.

The target of experiment [1] is T2, 人源B7H3(细胞表面表达) (human, UniProt Q5ZPR3 29-534).
T2 construct: whole, on cells; in the ADCC assay the protein is the endogenous B7H3 of A375 cells; also called CD276; 人B7H3
T2 sequence (looked up): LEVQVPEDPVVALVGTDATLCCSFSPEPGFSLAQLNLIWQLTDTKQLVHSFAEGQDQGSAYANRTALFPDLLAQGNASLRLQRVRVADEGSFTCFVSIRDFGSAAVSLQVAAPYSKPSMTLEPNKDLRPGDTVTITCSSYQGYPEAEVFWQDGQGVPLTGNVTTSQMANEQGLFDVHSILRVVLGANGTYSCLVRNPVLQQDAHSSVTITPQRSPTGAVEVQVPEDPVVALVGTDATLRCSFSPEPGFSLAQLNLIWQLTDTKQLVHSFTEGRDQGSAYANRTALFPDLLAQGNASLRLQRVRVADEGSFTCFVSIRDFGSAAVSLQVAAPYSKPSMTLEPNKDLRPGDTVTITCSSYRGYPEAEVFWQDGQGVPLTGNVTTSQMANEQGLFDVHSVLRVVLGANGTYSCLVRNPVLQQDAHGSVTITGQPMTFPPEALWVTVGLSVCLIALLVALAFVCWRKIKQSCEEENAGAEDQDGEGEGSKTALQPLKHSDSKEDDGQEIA
Nature of the experiment: flow cytometry on CHO cells stably expressing B7H3. (In general: In flow cytometry, cells or beads pass a laser one at a time.)

The target of experiment [2] is T2, 人源B7H3(细胞表面表达). As to the kind of experiment: flow cytometry, hybridoma supernatant on cells expressing B7H3.
In another experiment the target is T3, 鼠源B7H3(稳定表达细胞株mB7H3-CHO) (mouse, UniProt Q8VE98 29-316).
T3 construct: whole, on cells; also called 鼠B7H3蛋白
T3 sequence (looked up): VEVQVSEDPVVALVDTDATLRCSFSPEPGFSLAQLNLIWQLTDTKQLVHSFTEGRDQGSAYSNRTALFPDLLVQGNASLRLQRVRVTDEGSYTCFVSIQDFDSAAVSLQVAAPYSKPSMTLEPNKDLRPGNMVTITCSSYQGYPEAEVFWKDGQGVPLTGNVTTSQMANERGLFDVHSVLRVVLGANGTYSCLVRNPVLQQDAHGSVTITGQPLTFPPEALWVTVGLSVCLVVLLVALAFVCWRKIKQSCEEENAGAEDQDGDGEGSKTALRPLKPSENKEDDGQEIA
As to the kind of experiment: flow cytometry, hybridoma supernatant on mB7H3-CHO cells.

B1: 人源化单抗huJ65-2 (antibody, V domains shown)
VH: EVQLVESGGGLVQPGGSLRLSCEASGFTFSSHGMSWVRQAPGKGLEWVATISGGGRYSYYPDNIQGRFTISRDNAKNSLYLQMNSLRAEDTAVYYCARHWDGYLDYWGQGTLVTVSS
VL: DIQMTQSPSSLSASVGDRVTITCRPSENIYSYLAWYQQKPGKAPKLLVYNAKTLTEGAPSRFSGSGSGTDFTLTISSLQPEDFATYYCQHHYGPPPYTFGQGTKVEIK
notes: also called hJ65-2; 人源化抗体2
Turning to B1, the binding result with B7H3-His重组蛋白 and with 人源B7H3(细胞表面表达) [1] was “binds” each time.

B2: 鼠源单克隆抗体J65(杂交瘤克隆J65上清) (antibody, V domains shown)
VH: EVQLQESGGDLVKPGGSLKLSCEASGFTFSSHGMSWIRQTPDKRLDWVATISGGGRYSYYPDNIQGRFTISRDNAKDTLYLQMSSLQSEDTALYYCARHWDGYLDYWGQGTTLTVSS
VL: DIVMTQTPASLSASVGETVTITCRPSENIYSYLAWYQQKQGKSPQLLVYNAKTLTEGAPSRFSGSGSGTQFSLKINSLQPEDFGIYYCQHHYGPPPYTFGGGTKVEIK
notes: Mouse monoclonal antibody as secreted by the hybridoma (supernatant used in flow cytometry); also called 杂交瘤J65; 单抗J65
With B2, the binding result with B7H3-His重组蛋白 was “binds”; with 人源B7H3(细胞表面表达) [2] it was “binds”; in the experiment with 鼠源B7H3(稳定表达细胞株mB7H3-CHO) it was “no binding”.

B3: 嵌合抗体J65(cJ65) (antibody, V domains shown)
VH: B2 VH
VL: B2 VL
notes: also called cJ65-1
With B3, the binding result in the experiment with 人源B7H3(细胞表面表达) [1] is given as “binds”.

B4: 重组鼠源单抗J65(mJ65) (antibody, V domains shown)
VH: B2 VH
VL: B2 VL
notes: also called 重组鼠单抗mJ65
In the case of B4, the binding result in the experiment with 人源B7H3(细胞表面表达) [1] was “binds”.

Source of the values: patent CN117024592A (WEST CHINA HOSPITAL SICHUAN UNIV, dated 2023).
